# Experimental data published in article PMC3797800, “The Coordination of Cell Growth during Fission Yeast Mating Requires Ras1-GTP Hydrolysis” (PLoS ONE, 2013).
# T1: CFP-Ras1 (S. pombe, UniProt P08647 1-219)
# T1 construct: Ras1, small GTPase of Schizosaccharomyces pombe; ORF amplified from the start codon to the stop codon and cloned behind CFP; also called Ras1-GTP; source: S. pombe (strain JY1618, Δras1Δgap1), expressed from pREP4x (nmt1 promoter), in living cells; not shown: CFP, N-terminal, kept
# T1 sequence (looked up): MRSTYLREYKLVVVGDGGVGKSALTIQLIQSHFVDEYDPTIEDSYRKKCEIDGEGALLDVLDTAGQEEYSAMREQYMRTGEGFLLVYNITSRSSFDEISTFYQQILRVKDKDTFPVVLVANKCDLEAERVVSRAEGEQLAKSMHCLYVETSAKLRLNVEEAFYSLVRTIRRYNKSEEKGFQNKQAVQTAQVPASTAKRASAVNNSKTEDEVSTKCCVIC
# Biological target: T1, CFP-Ras1
# Assay: FRET or BRET; FACS-based FRET (405 nm excitation, 585/42 nm emission), living S. pombe cells co-expressing CFP and YFP fusions; percent of cells with a FRET signal over 0-8 h after 10 μM pheromone
# Conditions: partners not purified
binder,measurement,value
"Gap1-YFP (natural protein, S. pombe, UniProt P33277 1-766, looked up, ORF amplified from the start codon, stop codon removed, cloned in front of YFP; source: S. pombe, expressed from pREP3x (nmt1 promoter), in living cells; not shown: YFP, C-terminal, kept) MTKRHSGTLSSSVLPQTNRLSLLRNRESTSVLYTIDLDMESDVEDAFFHLDRELHDLKQQISSQSKQNFVLERDVRYLDSKIALLIQNRMAQEEQHEFAKRLNDNYNAVKGSFPDDRKLQLYGALFFLLQSEPAYIASLVRRVKLFNMDALLQIVMFNIYGNQYESREEHLLLSLFQMVLTTEFEATSDVLSLLRANTPVSRMLTTYTRRGPGQAYLRSILYQCINDVAIHPDLQLDIHPLSVYRYLVNTGQLSPSEDDNLLTNEEVSEFPAVKNAIQERSAQLLLLTKRFLDAVLNSIDEIPYGIRWVCKLIRNLTNRLFPSISDSTICSLIGGFFFLRFVNPAIISPQTSMLLDSCPSDNVRKTLATIAKIIQSVANGTSSTKTHLDVSFQPMLKEYEEKVHNLLRKLGNVGDFFEALELDQYIALSKKSLALEMTVNEIYLTHEIILENLDNLYDPDSHVHLILQELGEPCKSVPQEDNCLVTLPLYNRWDSSIPDLKQNLKVTREDILYVDAKTLFIQLLRLLPSGHPATRVPLDLPLIADSVSSLKSMSLMKKGIRAIELLDELSTLRLVDKENRYEPLTSEVEKEFIDLDALYERIRAERDALQDVHRAICDHNEYLQTQLQIYGSYLNNARSQIKPSHSDSKGFSRGVGVVGIKPKNIKSSNTVKLSSQQLKKESVLLNCTIPEFNVSNTYFTFSSPSTDNFVIAVYQRGHSKVLVEVCICLDDVLQRRYASNPVVDLGFLTFEANKLYHLFEQLFLRK","fold increase of the percent of cells with a FRET signal, 30 min pheromone against time 0",2 fold
